# Experimental data reported in patent US20240317834A1, “COMPOSITIONS AND METHODS FOR NEUROLOGICAL DISEASES” (CODA BIOTHERAPEUTICS, INC., priority 2020, published 2024).
# Assays:
# Lenti-X 293T cells = assay: YFP fluorescence quenching anion reporter plate reader assay of engineered receptors stimulated with acetylcholine or a non-native ligand; format: cell-based
# Summary of the method: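 Lenti-X 293T cells carrying a YFP anion reporter were transiently transfected with channel DNA and assayed the next day in HEPES-buffered ECS at pH 7.2. Ligand (acetylcholine or non-native ligand) was added in NaI-substituted ECS. Percent quench was the mean of the last 10 s relative to the 15 s pre-addition baseline.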
# rat DRG neurons = assay: Rheobase shift and evoked action potentials in rat DRG neurons (current clamp); format: cell-based
# Protocol: Using whole cell manual patch clamp electrophysiology in HEK293 cells, rat DRG neurons and rat hippocampal neurons, the EC50 of the various engineered receptors disclosed herein to Ach and non-native ligands was measured using the Hill equation with peak current measurements from escalating doses of ligand. The rheobase shift was also measured in rat DRG neurons, which reflects the efficacy of the receptors. To calculate the rheobase, first, the amount of current that can produce an action potential was determined. Then the ligand was added, followed by a step wise increase in the current injected up to 700 pA.
# For manual patch clamp experiments, Cells plated on coverslips were visualized at 10× and 40× on an inverted fluorescence microscope (Olympus). Recordings were made with an Axopatch 200B amplifier and Digidata 1550B (Molecular Devices) at RT using 3-6 MOhm glass patch electrodes (Sutter, BF150-86-10). Unless otherwise stated, recordings were made in extracellular solution (ECS) containing: 140 mM sodium chloride, 4 mM potassium chloride, 1 mM magnesium chloride, 2 mM calcium chloride, 10 mM HEPES, and 10 mM D-(+)-glucose (pH=7.3 with sodium hydroxide, osmolarity=305−315 mOsm). An 8-line reservoir (AutoMate Scientific) in combination with an 8-channel zero-dead-volume perfusion pencil (AutoMate Scientific) was used for perfusion. Data was acquired using pClamp software (Molecular Devices). Traces were either analyzed in Clampfit (Molecular Devices) or using custom Python code. Plotting and statistics were performed in GraphPad Prism.
# DRG rheobase experiments were performed in current clamp mode using a potassium-based internal solution containing: 100 mM potassium D-gluconate, 28 mM potassium chloride, 1 mM magnesium chloride hexahydrate, 5 mM magnesium ATP, 10 mM HEPES, and 0.5 mM EGTA (pH=7.2 with potassium hydroxide, osmolarity=290-295 mOsm, calculated liquid junction potential=−13.5 mV). To measure DRG input resistance and rheobase, 500 ms current steps (−200 pA to 700 pA) were applied the membrane in the presence and absence of a compound. No holding current was applied to the membrane for cells included in the final datasets. Data were acquired at 10 kHz, with Bessel filter at 2 kHz and series resistance compensation at 100%. Rheobase was defined as the smallest depolarizing current injection required to cause an action potential to fire in the cell. In a subset of cells, the rheobase was ambiguous, since the action potential appeared to be graded in amplitude. In these cases, a […] of the trace clarified the rheobase. Input resistance was measured from the negative current injections, calculated as the difference in membrane potential at steady state divided by the current injection amplitude and then averaged across the four negative current steps for each recording. Resting membrane potential was measured from the first 100 ms of each sweep, averaged for each recording, and corrected for liquid junction potential. One-way ANOVA with multiple comparisons was used to test for significance of difference in rheobase and input resistance between baseline, drug, and wash conditions.
molecule,measurement,setting,value
"CODA1039: engineered chimeric LGIC receptor, Y115E, Y210W in SEQ ID NO: 33 (protein, synthetic sequence of chimeric LGIC) MRCSPGGVWLALAASLLHVSLQGEFQRKLYKELVKNYNPLERPVANDSQPLTVYFSLSLLQIMDVDEKNQVLTTNIWLQMSWTDHYLQWNVSEYPGVKTVRFPDGQIWKPDILLENSADERFDATFHTNVLVNSSGHCQYLPPGIFKSSCPMDLKNFPMDVQTCKLKFGSWSYGGWSLDLQMQEADISGYIPNGEWDLVGIPGKRSERFWECCKEPYPDVTFTVTMRRRMGYYLIQMYIPSLLIVILSWISFWINMDAAPARVGLGITTVLTMTTQSSGSRASLPKVSYVKAIDIWMAVCLLFVFSALLEYAAVNFVSRQHKELLRFRRKRRHHKSPMLNLFQEDEAGEGRFNFSAYGMGPACLQAKDGISVKGANNSNTTNPPPAPSKSPEEMRKLFIQRAKKIDKISRIGFPMAFLIFNMFYWIIYKIVRREDVHNQ",YFP fluorescence quenching using CNL001,"Lenti-X 293T cells; 1 nM CNL001, first column",−1.12%
same,YFP fluorescence quenching using CNL001,"Lenti-X 293T cells; 1 nM CNL001, second column",−3.941%
same,YFP fluorescence quenching using TC-5619/Bradanicline,Lenti-X 293T cells; 1 nM brd,−5.55%
same,YFP fluorescence quenching using TC-5619/Bradanicline,Lenti-X 293T cells; 3 nM brd,6.78%
same,YFP fluorescence quenching using Varenicline,"Lenti-X 293T cells; 3 nM var, first column",−10.926
same,YFP fluorescence quenching using Varenicline,"Lenti-X 293T cells; 3 nM var, second column",−7.395
same,YFP fluorescence quenching using CNL001,"Lenti-X 293T cells; 10 nM CNL001, first column",6.275%
same,YFP fluorescence quenching using CNL001,"Lenti-X 293T cells; 10 nM CNL001, second column",11.943%
same,YFP fluorescence quenching using TC-5619/Bradanicline,Lenti-X 293T cells; 10 nM brd,−2.7%
same,YFP fluorescence quenching using TC-5619/Bradanicline,Lenti-X 293T cells; 30 nM brd,34.43%
same,YFP fluorescence quenching using Facinicline,Lenti-X 293T cells; 30 nM fac,−13.46
same,YFP fluorescence quenching using Varenicline,"Lenti-X 293T cells; 30 nM var, first column",−5.661
same,YFP fluorescence quenching using Varenicline,"Lenti-X 293T cells; 30 nM var, second column",−1.244
same,YFP fluorescence quenching using CNL001,"Lenti-X 293T cells; 50 nM CNL001, first column",12.949%
same,YFP fluorescence quenching using CNL001,"Lenti-X 293T cells; 50 nM CNL001, second column",18.635%
same,YFP fluorescence quenching using ABT-126,Lenti-X 293T cells; 50 nM abt,−17.32%
same,YFP fluorescence quenching using CNL001,"Lenti-X 293T cells; 100 nM CNL001, first column",17.576%
same,YFP fluorescence quenching using CNL001,"Lenti-X 293T cells; 100 nM CNL001, second column",18.319%
same,YFP fluorescence quenching using CNL002,Lenti-X 293T cells; 100 nM CNL002,21.85%
same,YFP fluorescence quenching using ABT-126,Lenti-X 293T cells; 100 nM abt,−13.93%
same,YFP fluorescence quenching using AZD-0328,Lenti-X 293T cells; 100 nM azd0328,−10.45%
same,YFP fluorescence quenching using ABT-126,Lenti-X 293T cells; 300 nM abt,9.9%
same,YFP fluorescence quenching using AZD-0328,Lenti-X 293T cells; 300 nM azd0328,−13%
same,YFP fluorescence quenching using TC-5619/Bradanicline,Lenti-X 293T cells; 300 nM brd,70.05%
same,YFP fluorescence quenching using Facinicline,Lenti-X 293T cells; 300 nM fac,5.43
same,YFP fluorescence quenching using Varenicline,"Lenti-X 293T cells; 300 nM var, first column",−4.555
same,YFP fluorescence quenching using Varenicline,"Lenti-X 293T cells; 300 nM var, second column",1.081
same,YFP fluorescence quenching using ABT-126,Lenti-X 293T cells; 500 nM abt,36.97%
same,YFP fluorescence quenching using Varenicline,"Lenti-X 293T cells; 500 nM var, first column",9.172
same,YFP fluorescence quenching using Varenicline,"Lenti-X 293T cells; 500 nM var, second column",12.561
same,YFP fluorescence quenching using CNL001,"Lenti-X 293T cells; 1 uM CNL001, first column",19.329%
same,YFP fluorescence quenching using CNL001,"Lenti-X 293T cells; 1 uM CNL001, second column",20.672%
same,YFP fluorescence quenching using CNL002,Lenti-X 293T cells; 1 uM CNL002,47.37%
same,YFP fluorescence quenching using ABT-126,Lenti-X 293T cells; 1 uM abt,48.37%
same,YFP fluorescence quenching using TC-6987,Lenti-X 293T cells; 1 uM tc6987,7.26
same,YFP fluorescence quenching using Varenicline,"Lenti-X 293T cells; 1 uM var, first column",7.139
same,YFP fluorescence quenching using Varenicline,"Lenti-X 293T cells; 1 uM var, second column",12.664
same,YFP fluorescence quenching using ABT-126,Lenti-X 293T cells; 3 uM abt,50.5%
same,YFP fluorescence quenching using ABT-126,Lenti-X 293T cells; 10 uM abt,58.13%
same,YFP fluorescence quenching using TC-6987,Lenti-X 293T cells; 10 uM tc6987,11
same,YFP fluorescence quenching using CNL002,Lenti-X 293T cells; 30 uM CNL002,59.97%
same,YFP fluorescence quenching using ABT-126,Lenti-X 293T cells; 30 uM abt,64.1%
same,YFP fluorescence quenching using AZD-0328,Lenti-X 293T cells; 30 uM azd0328,30.76%
same,YFP fluorescence quenching using Facinicline,Lenti-X 293T cells; 30 uM fac,49.06
same,YFP fluorescence quenching using ABT-126,Lenti-X 293T cells; 50 uM abt,66.67%
same,YFP fluorescence quenching using ABT-126,Lenti-X 293T cells; 100 uM abt,68.63%
same,YFP fluorescence quenching using TC-6987,Lenti-X 293T cells; 500 uM tc6987,7.97
same,"percent quench of YFP fluorescence, 30 nM TC-6683",Lenti-X 293T cells; TC-6683 30 nM,−1.608%
same,"percent quench of YFP fluorescence, 300 nM TC-6683",Lenti-X 293T cells; TC-6683 300 nM,−3.491%
same,"percent quench of YFP fluorescence, 3 uM TC-6683",Lenti-X 293T cells; TC-6683 3 uM,−6.153%
same,"percent quench of YFP fluorescence, 30 uM TC-6683",Lenti-X 293T cells; TC-6683 30 uM,−9.263%
same,"percent quench of YFP fluorescence, 100 uM TC-6683",Lenti-X 293T cells; TC-6683 100 uM,−9.19%
same,"percent quench of YFP fluorescence, 10 uM ach",Lenti-X 293T cells; acetylcholine 10 uM,−2.97%
same,"percent quench of YFP fluorescence, 50 uM ach",Lenti-X 293T cells; acetylcholine 50 uM,−3.94%
same,"percent quench of YFP fluorescence, 100 uM ach",Lenti-X 293T cells; acetylcholine 100 uM,0.35%
same,"percent quench of YFP fluorescence, 300 uM ach",Lenti-X 293T cells; acetylcholine 300 uM,−4.13%
same,"percent quench of YFP fluorescence, 500 uM ach",Lenti-X 293T cells; acetylcholine 500 uM,−5.18%
same,"percent quench of YFP fluorescence, 1 mM ach",Lenti-X 293T cells; acetylcholine 1 mM,1.21%
same,"percent quench of YFP fluorescence, 3 mM ach",Lenti-X 293T cells; acetylcholine 3 mM,26.69%
same,"Rheobase Shift; Rat DRG Neurons, +TC-5619 @ EC90",rat DRG neurons; +TC-5619 @ EC90,453 ± 58 pA
same,"Rheobase Shift; Rat DRG Neurons, Baseline","rat DRG neurons; Baseline, no ligand",88 ± 9 pA
